The values below are quoted from earlier work in paper PMC8448686.

A word on the Kd: it is the free concentration of one partner at which half of the binding sites on the other are occupied at equilibrium, for simple one-to-one binding.

Series [1] concerns the target HER2 (Homo sapiens) (UniProt P04626). As to the kind of experiment: LigandTracer.
The target of series [2] is CD20 (Homo sapiens) (UniProt P11836). Description: LigandTracer.
Sequence of UniProt P11836 (P11836 whole entry): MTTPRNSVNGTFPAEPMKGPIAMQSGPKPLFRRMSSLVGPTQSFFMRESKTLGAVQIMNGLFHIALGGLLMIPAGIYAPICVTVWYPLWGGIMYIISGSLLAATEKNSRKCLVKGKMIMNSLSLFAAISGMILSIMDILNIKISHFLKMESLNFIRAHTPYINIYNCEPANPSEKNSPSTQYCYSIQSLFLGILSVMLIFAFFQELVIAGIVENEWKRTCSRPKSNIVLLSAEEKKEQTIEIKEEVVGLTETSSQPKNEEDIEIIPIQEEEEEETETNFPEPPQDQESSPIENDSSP

Turning to Pertuzumab, in series [1], the Kd is 0.13 nM. With Rituximab, the Kd in series [2] is 0.93 nM.
